From article doi:10.1101/854158 (bioRxiv, 2019)

T1: FANCC (human, UniProt Q00597 1-558)
T1 sequence: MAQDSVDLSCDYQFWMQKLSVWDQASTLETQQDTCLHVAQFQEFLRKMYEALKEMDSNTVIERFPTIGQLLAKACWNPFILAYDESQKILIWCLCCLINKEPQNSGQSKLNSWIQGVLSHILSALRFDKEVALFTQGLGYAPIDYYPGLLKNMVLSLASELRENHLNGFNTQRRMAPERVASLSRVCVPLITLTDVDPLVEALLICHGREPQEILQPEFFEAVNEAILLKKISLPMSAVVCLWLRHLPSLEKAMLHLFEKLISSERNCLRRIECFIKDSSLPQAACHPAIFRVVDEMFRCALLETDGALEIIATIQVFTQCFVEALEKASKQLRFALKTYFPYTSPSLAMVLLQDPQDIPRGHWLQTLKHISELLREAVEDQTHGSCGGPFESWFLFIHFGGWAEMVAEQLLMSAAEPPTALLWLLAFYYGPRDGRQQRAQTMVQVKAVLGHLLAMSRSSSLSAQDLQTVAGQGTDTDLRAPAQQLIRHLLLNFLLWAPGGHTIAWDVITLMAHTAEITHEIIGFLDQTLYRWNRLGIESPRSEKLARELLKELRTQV

T2: FANCA (human, UniProt O15360 1-1455)
T2 sequence: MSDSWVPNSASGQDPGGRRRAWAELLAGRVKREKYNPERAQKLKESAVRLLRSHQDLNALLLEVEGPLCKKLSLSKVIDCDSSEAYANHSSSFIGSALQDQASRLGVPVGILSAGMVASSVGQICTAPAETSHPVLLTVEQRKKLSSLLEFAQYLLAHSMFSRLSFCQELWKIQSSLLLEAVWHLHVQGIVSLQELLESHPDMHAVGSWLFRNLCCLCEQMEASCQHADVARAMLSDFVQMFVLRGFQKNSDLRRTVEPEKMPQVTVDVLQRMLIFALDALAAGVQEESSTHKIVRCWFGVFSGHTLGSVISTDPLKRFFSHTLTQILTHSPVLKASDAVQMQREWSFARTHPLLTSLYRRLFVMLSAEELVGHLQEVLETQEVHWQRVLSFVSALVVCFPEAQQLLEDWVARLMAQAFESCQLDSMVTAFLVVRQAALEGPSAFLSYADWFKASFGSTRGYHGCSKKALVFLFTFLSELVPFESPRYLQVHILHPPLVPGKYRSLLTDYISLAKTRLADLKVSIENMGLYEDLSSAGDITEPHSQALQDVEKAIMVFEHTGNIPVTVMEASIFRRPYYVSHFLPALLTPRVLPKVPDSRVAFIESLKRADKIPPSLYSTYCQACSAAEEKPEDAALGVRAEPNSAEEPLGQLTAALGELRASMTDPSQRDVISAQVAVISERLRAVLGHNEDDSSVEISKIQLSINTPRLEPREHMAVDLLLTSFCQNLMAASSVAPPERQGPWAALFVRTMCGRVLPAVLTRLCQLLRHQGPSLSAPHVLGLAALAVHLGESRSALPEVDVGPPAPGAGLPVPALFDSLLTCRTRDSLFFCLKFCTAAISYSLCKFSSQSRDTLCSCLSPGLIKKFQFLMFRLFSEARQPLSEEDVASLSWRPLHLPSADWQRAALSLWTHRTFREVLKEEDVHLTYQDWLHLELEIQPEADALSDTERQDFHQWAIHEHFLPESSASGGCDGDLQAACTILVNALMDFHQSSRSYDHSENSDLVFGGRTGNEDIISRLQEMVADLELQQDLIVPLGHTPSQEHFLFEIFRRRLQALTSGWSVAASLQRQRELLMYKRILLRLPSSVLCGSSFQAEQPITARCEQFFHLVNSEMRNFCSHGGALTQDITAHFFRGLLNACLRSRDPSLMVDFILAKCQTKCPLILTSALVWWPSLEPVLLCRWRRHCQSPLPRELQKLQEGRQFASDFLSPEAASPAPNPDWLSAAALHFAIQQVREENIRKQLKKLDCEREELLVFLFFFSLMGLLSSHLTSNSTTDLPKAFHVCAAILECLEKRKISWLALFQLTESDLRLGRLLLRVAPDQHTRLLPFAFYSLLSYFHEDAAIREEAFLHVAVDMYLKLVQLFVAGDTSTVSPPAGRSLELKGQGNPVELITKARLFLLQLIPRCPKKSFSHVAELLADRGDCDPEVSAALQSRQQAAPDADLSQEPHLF

T3: FANCB (human, UniProt Q8NB91 1-859)
T3 sequence: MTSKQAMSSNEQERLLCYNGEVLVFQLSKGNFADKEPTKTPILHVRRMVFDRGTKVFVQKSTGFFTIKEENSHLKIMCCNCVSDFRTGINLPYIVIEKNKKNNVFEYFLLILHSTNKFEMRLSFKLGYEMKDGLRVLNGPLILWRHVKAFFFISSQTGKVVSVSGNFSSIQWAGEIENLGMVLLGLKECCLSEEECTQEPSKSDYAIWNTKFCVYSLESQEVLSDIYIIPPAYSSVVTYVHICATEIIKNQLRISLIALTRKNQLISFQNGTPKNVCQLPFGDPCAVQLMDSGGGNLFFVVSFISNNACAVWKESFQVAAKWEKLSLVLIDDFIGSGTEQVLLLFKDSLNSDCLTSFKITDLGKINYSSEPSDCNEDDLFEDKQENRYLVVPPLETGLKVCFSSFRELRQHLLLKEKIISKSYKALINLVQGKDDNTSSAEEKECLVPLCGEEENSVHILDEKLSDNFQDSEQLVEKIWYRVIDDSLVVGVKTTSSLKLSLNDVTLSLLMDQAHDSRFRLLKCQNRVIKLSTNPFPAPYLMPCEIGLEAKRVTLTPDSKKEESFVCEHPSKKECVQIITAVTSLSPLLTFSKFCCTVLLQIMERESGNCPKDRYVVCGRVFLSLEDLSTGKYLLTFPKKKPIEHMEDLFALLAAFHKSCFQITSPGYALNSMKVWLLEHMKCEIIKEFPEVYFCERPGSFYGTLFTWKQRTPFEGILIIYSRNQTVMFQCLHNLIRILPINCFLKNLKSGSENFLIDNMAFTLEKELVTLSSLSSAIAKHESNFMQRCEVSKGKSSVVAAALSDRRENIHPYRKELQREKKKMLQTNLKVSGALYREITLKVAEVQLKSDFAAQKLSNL

T4: FAAP100 (human, UniProt Q0VG06 1-881)
T4 sequence: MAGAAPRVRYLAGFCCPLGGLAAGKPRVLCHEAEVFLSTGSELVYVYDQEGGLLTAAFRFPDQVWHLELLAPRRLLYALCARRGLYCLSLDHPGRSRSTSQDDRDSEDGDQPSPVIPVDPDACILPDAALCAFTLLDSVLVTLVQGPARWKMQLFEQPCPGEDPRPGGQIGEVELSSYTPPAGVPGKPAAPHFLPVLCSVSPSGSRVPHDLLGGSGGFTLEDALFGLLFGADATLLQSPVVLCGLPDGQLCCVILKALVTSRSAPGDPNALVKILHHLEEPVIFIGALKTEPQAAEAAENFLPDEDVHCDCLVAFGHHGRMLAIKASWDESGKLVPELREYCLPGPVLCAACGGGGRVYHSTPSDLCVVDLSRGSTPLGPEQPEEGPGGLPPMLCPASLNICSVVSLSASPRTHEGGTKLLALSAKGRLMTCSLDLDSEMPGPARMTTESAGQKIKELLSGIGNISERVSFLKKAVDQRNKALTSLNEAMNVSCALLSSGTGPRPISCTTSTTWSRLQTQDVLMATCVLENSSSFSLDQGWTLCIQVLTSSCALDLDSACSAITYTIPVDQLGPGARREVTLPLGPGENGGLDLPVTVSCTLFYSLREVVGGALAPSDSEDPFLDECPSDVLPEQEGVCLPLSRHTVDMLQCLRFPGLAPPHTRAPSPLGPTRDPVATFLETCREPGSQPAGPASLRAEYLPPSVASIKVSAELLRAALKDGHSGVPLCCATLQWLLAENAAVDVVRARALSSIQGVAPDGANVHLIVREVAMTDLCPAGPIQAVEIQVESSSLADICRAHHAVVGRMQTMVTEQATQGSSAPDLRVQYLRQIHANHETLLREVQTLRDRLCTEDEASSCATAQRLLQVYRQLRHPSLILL

B1: FANCF (natural protein)
chain: MESLLQHLDRFSELLAVSSTTYVSTWDPATVRRALQWARYLRHIHRRFGRHGPIRTALERRLHNQWRQEGGFGRGPVPGLANFQALGHCDVLLSLRLLENRALGDAARYHLVQQLFPGPGVRDADEETLQESLARLARRRSAVHMLRFNGYRENPNLQEDSLMKTQAELLLERLQEVGKAEAERPARFLSSLWERLPQNNFLKVIAVALLQPPLSRRPQEELEPGIHKSPGEGSQVLVHWLLGNSEVFAAFCRALPAGLLTLVTSRHPALSPVYLGLLTDWGQRLHYDLQKGIWVGTESQDVPWEELHNRFQSLCQAPPPLKDKVLTALETCKAQDGDFEVPGLSIWTDLLLALRSGAFRKRQVLGLSAGLSSV
B2: FANCG (natural protein)
chain: MSRQTTSVGSSCLDLWREKNDRLVRQAKVAQNSGLTLRRQQLAQDALEGLRGLLHSLQGLPAAVPVLPLELTVTCNFIILRASLAQGFTEDQAQDIQRSLERVLETQEQQGPRLEQGLRELWDSVLRASCLLPELLSALHRLVGLQAALWLSADRLGDLALLLETLNGSQSGASKDLLLLLKTWSPPAEELDAPLTLQDAQGLKDVLLTAFAYRQGLQELITGNPDKALSSLHEAASGLCPRPVLVQVYTALGSCHRKMGNPQRALLYLVAALKEGSAWGPPLLEASRLYQQLGDTTAELESLELLVEALNVPCSSKAPQFLIEVELLLPPPDLASPLHCGTQSQTKHILASRCLQTGRAGDAAEHYLDLLALLLDSSEPRFSPPPSPPGPCMPEVFLEAAVALIQAGRAQDALTLCEELLSRTSSLLPKMSRLWEDARKGTKELPYCPLWVSATHLLQGQAWVQLGAQKVAISEFSRCLELLFRATPEEKEQGAAFNCEQGCKSDAALQQLRAAALISRGLEWVASGQDTKALQDFLLSVQMCPGNRDTYFHLLQTLKRLDRRDEATALWWRLEAQTKGSHEDALWSLPLYLESYLSWIRPSDRDAFLEEFRTSLPKSCDL

Tests used:
Assay in all cases: cryo-EM structure
FANCC = molecular target: T1, FANCC
FANCG = molecular target: B2
FANCA = molecular target: T2, FANCA
FANCB = molecular target: T3, FANCB
FAAP100 = molecular target: T4, FAAP100

Row | Binder | binding result (FANCC) | binding result (FANCG) | binding result (FANCA) | binding result (FANCB) | binding result (FAAP100)
1 | B1 | binds | binds | – | – | –
2 | B2 | – | – | binds | binds | binds
